Experimental data published in US20220332804A1 (CSL INNOVATION, published 2022).
Substitutions are numbered along the chain they refer to.

What was measured:
Test in all cases: SPR, antibody captured, C2 as analyte;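 further: biacore at 37 °C, anti-C2 mAbs held by immobilised goat anti-human IgG, C2 alanine or serine mutants injected, double-referenced sensorgrams fitted to a 1:1 kinetic or steady-state model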
[1] = molecular target: T1, human C2 I272A (human, UniProt P06681 21-752)
T1 sequence: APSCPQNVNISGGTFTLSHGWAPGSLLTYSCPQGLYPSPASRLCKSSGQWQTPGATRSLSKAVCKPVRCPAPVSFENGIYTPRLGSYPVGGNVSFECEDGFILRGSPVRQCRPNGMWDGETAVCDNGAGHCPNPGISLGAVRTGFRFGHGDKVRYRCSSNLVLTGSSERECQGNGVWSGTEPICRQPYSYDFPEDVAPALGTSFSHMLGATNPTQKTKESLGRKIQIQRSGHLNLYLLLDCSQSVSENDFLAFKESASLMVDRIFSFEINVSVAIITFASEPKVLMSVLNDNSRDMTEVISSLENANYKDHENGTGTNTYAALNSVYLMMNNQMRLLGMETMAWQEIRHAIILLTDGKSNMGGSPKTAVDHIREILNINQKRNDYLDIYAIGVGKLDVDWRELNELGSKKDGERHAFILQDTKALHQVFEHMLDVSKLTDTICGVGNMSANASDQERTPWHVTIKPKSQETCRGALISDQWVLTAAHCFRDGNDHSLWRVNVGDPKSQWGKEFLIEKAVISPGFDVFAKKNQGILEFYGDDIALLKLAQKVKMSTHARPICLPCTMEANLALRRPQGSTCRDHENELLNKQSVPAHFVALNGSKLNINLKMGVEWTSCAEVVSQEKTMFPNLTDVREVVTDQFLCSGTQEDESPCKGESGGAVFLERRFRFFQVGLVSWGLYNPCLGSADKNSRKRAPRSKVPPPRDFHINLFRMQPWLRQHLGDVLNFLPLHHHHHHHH

[2] = molecular target: T2, human C2 I438A (human, UniProt P06681 21-752)
T2 sequence: T1 sequence with A252I, I418A

[3] = molecular target: T3, human C2 A436S (human, UniProt P06681 21-752)
T3 sequence: T1 sequence with A252I, A416S

[4] = molecular target: T4, human C2 E686A (human, UniProt P06681 21-752)
T4 sequence: T1 sequence with A252I, E666A

B1: RF16-242 (antibody, human IgG4 S228P, lambda, V domains shown)
VH: EVQLLQSGAEVKKPGESLKISCKGSGYSFTSYWIGWVRQMPGKGLEWMGIIYPGDSDTRYSPSFQGQVTISADKSISTAYLQWSSLKASDTAMYYCARRGHYGDYFDYWGQGTLVTVSS
VL: SYELTQPPSVSVSPGQTARITCSGDALPKKYAYWYHQKSGQAPVLVIYEDRRRPSEIPERFSGSSSGTMATLTITGAQVEDEGVYFCYSRDRAGNQRVFGGGTQLTVLG
notes: pH-dependent anti-C2 antibody from a phage display library
Kd [1]: 10.3 nM | Kd [2]: 8.7 nM | Kd [3]: 4.9 nM | Kd [4]: 32.6 nM
